Measurements taken from US20220195043A1.

Assays:
[1] = biological target: human CD3ε-his (Cat #:10977-H08s, SinoBiological, China) (human) (UniProt P07766); test: SPR (BIAcore 8K); human CD3ε-his coupled to CM5 chip, antibody injected
[2] = biological target: monkey CD20 (HEK293A/monkey CD20 cells) (monkey); test: FACS on HEK293A/monkey CD20 (CynoCD20) cells, PE anti-human IgG secondary antibody, MFI
[3] = biological target: human CD3ε-his (Cat #:10977-H08s, SinoBiological, China) (human) (UniProt P07766); test: ELISA: plate coated with human CD3ε-his (hCD3ε-his), antibody titrated, HRP goat anti-human IgG, OD450
[4] = biological target: monkey CD3 complex on cell surfaces (monkey PBMCs) (monkey); test: FACS on monkey PBMCs (Cyno-PBMC), given by the filing as binding to monkey CD3; PE goat anti-human IgG, MFI

human CD3ε-his (Cat #:10977-H08s, SinoBiological, China) (human), sequence (P07766 23-126 limits assumed): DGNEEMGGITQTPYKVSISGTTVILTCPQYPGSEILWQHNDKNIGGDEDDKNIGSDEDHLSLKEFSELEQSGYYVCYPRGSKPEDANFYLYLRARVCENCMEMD
monkey CD20 (HEK293A/monkey CD20 cells) (monkey), sequence (P11836 other isoform, or with tags, fused parts or gaps): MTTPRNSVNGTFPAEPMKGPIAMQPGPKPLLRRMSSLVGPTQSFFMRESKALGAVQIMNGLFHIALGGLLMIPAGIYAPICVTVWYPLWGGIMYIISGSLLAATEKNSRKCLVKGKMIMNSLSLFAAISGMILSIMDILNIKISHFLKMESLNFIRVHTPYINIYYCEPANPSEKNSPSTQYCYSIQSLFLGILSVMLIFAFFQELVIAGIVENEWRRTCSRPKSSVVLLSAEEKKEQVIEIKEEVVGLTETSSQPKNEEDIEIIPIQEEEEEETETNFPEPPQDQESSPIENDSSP

Kd [1]: 5.6 nM | EC50 (read off the curve) [2]: 0.06 µg/mL | EC50 (read off the curve) [3]: 0.1 µg/mL | EC50 (read off the curve) [4]: 0.6 µg/mL
Substance: CD20-TCB (reference bispecific antibody against CD3 and CD20)
